For one substance, stoichiometry N results are on record in publication PMC5737660.

The target in assay [1] is CdiI^NC101-His6 immunity protein, crystallography construct (E. coli NC101). In words: crystal structure.
For assay [2] the target is unchanged. The assay can be described thus: crystal structure. The source holds these as a separate data set.

Read-outs that look alike come from different tables or passages of the source.

For “CdiI^NC101-His6 immunity protein, crystallography construct (natural protein)”, the stoichiometry N in assay [1] and in assay [2] was 2 each time.
